The values below come from patent CN118459575A.

The experiment deals with 新型冠状病毒SARS-CoV-2和SARS-CoV以及动物来源的SARS-like冠状病毒S1. Put plainly: ELISA, S1 coated at 2 μg/mL, antibody titrated. Background: An ELISA detects its analyte on a solid surface through an enzyme-linked reagent.

B1: 广谱抗sarbecovirus和/或新冠突变株的抗体 SCM12-61 (antibody, V domains shown)
VH: QVQLVESGGGVVQPGRSLRLSCATSGFTFRSSAMHWVRQAPGKGLEWVAVIWFDGIKKYYTDSVKGRFTISRDNSKNTLYLQMNSLGAEDTAVYYCARDRAREFYPGPHCGDECYSSDAFDVWGQGTTVIVSS
VL: DIQMTQSPSSLSASVGDRVTITCRASQDINTYLNWYQQKSGRAPKFLIYAASSLQSGIPSRFSGSGSGTDFTLTIDSLQPEDFATYYCQQSHSIPYTFGQGTKLEIKR
The EC50 is the concentration giving half of the maximal effect. Take B1: the half-maximal effective concentration (EC50) was in the range of 0.0239 to 0.0405 µg/mL.
